In PMC12381204:

Columns and labels:
[1] = target: Membrane (M) protein C-terminal endodomain, 104-222 (UniProt P0DTC5)
[2] = target: non-structural protein 3 (Nsp3) ubiquitin-like domain 1 (Ubl1), 1-111
[3] = target: Phosphorylated SARS-CoV-2 Nucleocapsid protein (pN), full length, phosphorylated in vitro with GSK-3β and SRPK1 (SARS-CoV-2) (UniProt P0DTC9); test: […]; 20 mM Tris-HCl, 150 mM NaCl, pH 7.5, 37 °C
[4] = target: SARS-CoV-2 Nucleocapsid protein (N), full length, unmodified (SARS-CoV-2) (UniProt P0DTC9); test: […]; 20 mM Tris-HCl, 150 mM NaCl, pH 7.5, 37 °C

Row | Substance | other: partition coefficient [1] | other: partition coefficient [2] | partition coefficient [3] | partition coefficient [4]
1 | Nucleocapsid protein (N) (from UniProt P0DTC9) | lost; reference 9.8 ± 0.3 | weaker; reference 12.6 ± 0.1 |  | 
2 | 6xHis-GFP-M^104-222, C-terminal endodomain of the SARS-CoV-2 Membrane (M) protein (from UniProt P0DTC5 104-222) (domain or fragment) |  |  | 0.3 | 9.8
3 | 6xHis-GFP-Nsp3^1-111, ubiquitin-like domain 1 (Ubl1) of SARS-CoV-2 non-structural protein 3 (Nsp3) (domain or fragment) |  |  | 2.2 | 12.6
